Positions count from the first letter of the chain named. Blank lines part the entries; values can stand above or below the binder they belong to. Where no end group is shown, it is not given here. [ ]: non-standard residue; d: D form. pGlu = O=C1CC[C@@H](C(=O)O)N1
Experiments:
pyroE Aβ3-42 peptide = molecular target: T1, pyroE Aβ3-42 peptide (human, pyroglutamate derived from glutamic acid at the third amino acid position of Aβ (N-terminus of the peptide)); assay: graded binding, chimeric antibody (assay not named; ELISA in Example 1)
T1 construct: Synthetic peptide; It lacks the first two N-terminal residues of Aβ; also called pyroglutamate-modified β-amyloid
T1 sequence (peptide, as listed by the source): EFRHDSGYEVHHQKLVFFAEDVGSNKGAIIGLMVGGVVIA

[1] = molecular target: T2, pyroE Aβ3-16-biotin polypeptide (human, also: biotin, position not given here); assay: SPR (Biacore T200), biotinylated peptide on SA chip, antibody as analyte; antigen channel not given
T2 peptide: [pGlu]FRHDSGYEVHHQK

Aβ1-42 protofibril [2] = molecular target: T3, Aβ1-42 protofibril (human); assay: SPR (Biacore T200), protofibril on CM5 chip, antibody as analyte
T3 construct: also called amyloid protofibril
T3 sequence (peptide, as listed by the source): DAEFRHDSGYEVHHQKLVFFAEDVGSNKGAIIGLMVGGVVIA

Aβ1-42 monomer = molecular target: T4, Aβ1-42 monomer (human); assay: graded binding, chimeric antibody (assay not named; ELISA in Example 1)
T4 construct: Preparation of the monomer is not described

Aβ1-42 protofibril [3] = molecular target: T3, Aβ1-42 protofibril; assay: as above

B1: 151N5 (antibody, V domains shown)
VH: EVQLVESGGGLVKPGGSLKLSCAASGFTFSDFYMYWVRQTPEKRLEWVATISDGGRYTYYPDRLKGRFTISRNIAKNNLYLQMSSLKSEDTAMYYCARGRSTMITTTRNYFALDYWGQGTSVTVSS
VL: DIQMTQSSSSFSVSLGDRVTITCKASEDIYNRLAWYQQKPGDAPRLLISGAIRLETGVPSRFSGSGSGKDYTLSITSLQTEDGATYYCQQYWRTPLTFGAGIKLELK
notes: Chimeric (parent) antibody; the constant region of the chimeric form is not specified
binding result (pyroE Aβ3-42 peptide): binds | Kd [1]: 291 pM | koff [1]: 0.000319 s⁻¹ | kon [1]: 1.1e+06 M⁻¹ s⁻¹

B2: 200O1 (antibody, V domains shown)
VH: QVQLKESGPGLVAPSQSLSITCTVSGFSLSRYIVHWYRQPPGKGLEWLGMIWGGGRIDYNSALKSRLSISKDNSKSQVFLKMNSLQTDDTAMYYCARNFGENAEAYWGQGTLVTVSA
VL: DIQMTQTTSSLSASLGDRVTITCRASQDINIYLNWYQQKPDGVVKLLIYYTSRLHSGVPSRFSGSGSGTDFSLTISNLEQEDIATYFCQQGHTLPYTFGGGTKLEIK
notes: Chimeric (parent) antibody; the constant region of the chimeric form is not specified; also called 20001
binding result (pyroE Aβ3-42 peptide): binds | Kd [1]: 0.0716 pM | koff [1]: 5.44e-08 s⁻¹ | kon [1]: 760000 M⁻¹ s⁻¹

B3: 6B5 (antibody, V domains shown)
VH: EVQLQQSGAELVKPGASVKLSCKASGYTFTTYWMHWVKQRPGQGLEWIGEIDPSDSYTNYNQKFKGKATLTVDKSSSTAYMQLSSLTSEDSAVYYCARSFHGNFFVYWGQGTLVTVSA
VL: QIVLTQSPAIMSASPGEKVTITCSASSSVSYMHWFQQKPGTSPKLWIYSTSNLASGVPARFSGSGSGTSYSLTISRMEAEDAATYYCQQRSSYPLTFGAGTKLELK
notes: as for B1
Kd (Aβ1-42 protofibril [2]): 1.71 nM | koff (Aβ1-42 protofibril [2]): 0.00196 s⁻¹ | kon (Aβ1-42 protofibril [2]): 1.15e+06 M⁻¹ s⁻¹ | binding result (pyroE Aβ3-42 peptide): binds | binding result (Aβ1-42 monomer): binds

Now from value to binder:

binding result (Aβ1-42 protofibril [3]): binds | binding result (pyroE Aβ3-42 peptide): binds | binding result (Aβ1-42 monomer): binds
B4: 11G10 (antibody, V domains shown)
VH: B3 VH with L11I, T31S, S84R, F104L
VL: B3 VL with S55T, L105I
notes: Chimeric antibody; the constant region of the chimeric form is not specified

binding result (Aβ1-42 protofibril [3]): binds | binding result (pyroE Aβ3-42 peptide): binds | binding result (Aβ1-42 monomer): binds
B5: 6C9 (antibody, V domains shown)
VH: B3 VH with E1Q, T31N, W33Y, M34V, T58S
VL: B3 VL with P15L, K18E, V19I, I21L, L95P, A99G, L105I
notes: as for B4

— patent EP4768503A1 (Keymed Biosciences (Chengdu) Co., Ltd., dated 2026)
